In test [1] the target is F_((ecto))-WT (1–513 aa) fused with the T4 fibritin trimerization domain (respiratory syncytial virus (strain of the construct not stated) | T4) (UniProt P03420). The test can be described thus: MST; RED-NHS-labelled F_((ecto)) protein at 50 nM pretreated with DMSO, IGF1R titrated from 30.6 pM to 2 µM, PBS, Monolith NT.115.
The target in test [2] is F_((ecto))-K394R (F_((ecto))-WT with substitution of Lys394 with Arg394) fused with the T4 fibritin trimerization domain (respiratory syncytial virus (strain of the construct not stated) | T4) (UniProt P03420). The description is as above.

Data on one substance can be found in article PMC11389407.

As for “extracellular domain of the human IGF1R protein (Met 1−Asn 932) (from UniProt P08069 31-932) (domain or fragment)”, the figures for the Kd in test [1] and in test [2] were 11 nM and 12 nM, respectively.
